Data reported in publication PMC5506036, “SmMYB36, a Novel R2R3-MYB Transcription Factor, Enhances Tanshinone Accumulation and Decreases Phenolic Acid Content in Salvia miltiorrhiza Hairy Roots”.

T1: SmMYB36 (Salvia miltiorrhiza, UniProt A0A059PRJ2 1-160)
T1 sequence: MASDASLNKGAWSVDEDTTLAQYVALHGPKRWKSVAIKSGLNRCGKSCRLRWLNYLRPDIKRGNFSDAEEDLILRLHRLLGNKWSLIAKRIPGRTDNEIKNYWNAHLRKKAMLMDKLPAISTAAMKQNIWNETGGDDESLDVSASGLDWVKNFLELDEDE

B1: MCT-MBS2-1 (dsDNA)
DNA 1: AGGAAACCCTCACGGTCACCTTAACATTCA
DNA 2: TGAATGTTAAGGTGACCGTGAGGGTTTCCT
B2: MBS1 core (dsDNA)
DNA 1: CAACTG
DNA 2: CAGTTG
B3: 4CL2-MRE (dsDNA)
DNA 1: TTTGTAGAGTTGAACCTAAAGATGATGGGTG
DNA 2: CACCCATCATCTTTAGGTTCAACTCTACAAA
B4: C4H1-MBS3 (dsDNA)
DNA 1: GTTTAAAAGACATAACTGAGTTATCGAACA
DNA 2: TGTTCGATAACTCAGTTATGTCTTTTAAAC
B5: IPPI-MBS1 (dsDNA)
DNA 1: CCGCCGCCGCCACAACTGTAATGGTGCTTT
DNA 2: AAAGCACCATTACAGTTGTGGCGGCGGCGG
B6: MCT-MBS2-2 (dsDNA)
DNA 1: AAAACAGGCATCCGGTCAGTAAGTCCGCAT
DNA 2: ATGCGGACTTACTGACCGGATGCCTGTTTT
B7: DXR-MRE (dsDNA)
DNA 1: CCCCTTTTACAAAACCTAATTTCCCCCCAT
DNA 2: ATGGGGGGAAATTAGGTTTTGTAAAAGGGG
B8: HPPR-MRE-2 (dsDNA)
DNA 1: AATGATTGATTTAACCTAATCATTGTGAAACC
DNA 2: GGTTTCACAATGATTAGGTTAAATCAATCATT
B9: MCT-MBS3-2 (dsDNA)
DNA 1: AACTAGATGAATTAACTGGTAGCAATTACC
DNA 2: GGTAATTGCTACCAGTTAATTCATCTAGTT
B10: MCT-MBS3-1 (dsDNA)
DNA 1: TATCATCTTCGGTAACTGATACTCAAGGAT
DNA 2: ATCCTTGAGTATCAGTTACCGAAGATGATA
B11: GGPPS1-MBS2 (dsDNA)
DNA 1: TTAAAATCGTTACGGTCATACCACGGAAAC
DNA 2: GTTTCCGTGGTATGACCGTAACGATTTTAA
B12: C4H1-MBS1 (dsDNA)
DNA 1: TCTTTAAAACTCCAACTGATATGATGTTCG
DNA 2: CGAACATCATATCAGTTGGAGTTTTAAAGA
B13: MBSI-1 core (dsDNA)
DNA 1: AAAAAACCGTTA
DNA 2: TAACGGTTTTTT
B14: GGPPS1-MRE (dsDNA)
DNA 1: TTTTTCGATAGTAACCTAATTTTCTGTAGTG
DNA 2: CACTACAGAAAATTAGGTTACTATCGAAAAA
B15: MBSII core (dsDNA)
DNA 1: AAAAGTTAGTTA
DNA 2: TAACTAACTTTT
B16: HPPR-MRE-1 (dsDNA)
DNA 1: TTTTGTGGGACAAACCTAAAAAGAAACTGAA
DNA 2: TTCAGTTTCTTTTTAGGTTTGTCCCACAAAA
B17: HMGS1-MBS3 (dsDNA)
DNA 1: GTGTGTGCTGTTTAACTGATCCGCTATTTC
DNA 2: GAAATAGCGGATCAGTTAAACAGCACACAC
B18: MBSI-2 core (dsDNA)
DNA 1: AAAAAACGGTTA
DNA 2: TAACCGTTTTTT

biological target: T1, SmMYB36; assay: EMSA; Invitrogen EMSA kit, probe:protein mass ratio 1:15, 10 µL; protein eluted in 50 mM NaH2PO4, 300 mM NaCl, 250 mM imidazole pH 8.0; binding buffer and temperature not given; settings: protein: recombinant; tags: His (pET32a fusion); blunt

Binding result, binds:
B1, B2, B3, B4, B5, B6, B7, B8, B9, B10, B11, B12, B13, B14, B15, B16, B17, B18
